Laboratory results taken from patent publication US7132278.
Substitutions are numbered along the chain they refer to. Numbers in names are those of the source.

T1: AMARA peptide, synthetic substrate NH2-AMARAASAAALARRR-CO2H
T1 chain: AMARAASAAALARRR

B1: human PASK enzyme, wildtype, pre-phosphorylated in the presence of ATP (protein)
chain: MEDGGLTAFEEDQRCLSQSLPLPVSAEGPAAQTTAEPSRSFSSAHRHLSRRNGLSRLCQSRTALSEDRWSSYCLSSLAAQNICTSKLHCPAAPEHTDPSEPRGSVSCCSLLRGLSSGWSSPLLPAPVCNPNKAIFTVDAKTTEILVANDKACGLLGYSSQDLIGQKLTQFFLRSDSDVVEALSEEHMEADGHAAVVFGTVVDIISRSGEKIPVSVWMKRMRQERRLCCVVVLEPVERVSTWVAFQSDGTVTSCDSLFAHLHGYVSGEDVAGQHITDLIPSVQLPPSGQHIPKNLKIQRSVGRARDGTTFPLSLKLKSQPSSEEATTGEAAPVSGYRASVWVFCTISGLITLLPDGTIHGINHSFALTLFGYGKTELLGKNITFLIPGFYSYMDLAYNSSLQLPDLASCLDVGNESGCGERTLDPWQGQDPAEGGQDPRINVVLAGGHVVPRDEIRKLMESQDIFTGTQTELIAGGQLLSCLSPQPAPGVDNVPEGSLPVHGEQALPKDQQITALGREEPVAIESPGQDLLGESRSEPVDVKPFASCEDSEAPVPAEDGGSDAGMCGLCQKAQLERMGVSGPSGSDLWAGAAVAKPQAKGQLAGGSLLMHCPCYGSEWGLWWRSQDLAPSPSGMAGLSFGTPTLDEPWLGVENDREELQTCLIKEQLSQLSLAGALDVPHAELVPTECQAVTAPVSSCDLGGRDLCGGCTGSSSACYALATDLPGGLEAVEAQEVDVNSFSWNLKELFFSDQTDQTSSNCSCATSELRETPSSLAVGSDPDVGSLQEQGSCVLDDRELLLLTGTCVDLGQGRRFRESCVGHDPTEPLEVCLVSSEHYAASDRESPGHVPSTLDAGPEDTCPSAEEPRLNVQVTSTPVIVMRGAAGLQREIQEGAYSGSCHHRDGLRLSIQFEVRRVELQGPTPLFCCWLVKDLLHSQRDSAARTRLFLASLPGSTHSTAAELTGPSLVEVLRARPWFEEPPKAVELEGLAACEGEYSQKYSTMSPLGSGAFGFVWTAVDKEKNKEVVVKFIKKEKVLEDCWIEDPKLGKVTLEIAILSRVEHANIIKVLDIFENQGFFQLVMEKHGSGLDLFAFIDRHPRLDEPLASYIFRQLVSAVGYLRLKDIIHRDIKDENIVIAEDFTIKLIDFGSAAYLERGKLFYTFCGTIEYCAPEVLMGNPYRGPELEMWSLGVTLYTLVFEENPFCELEETVEAAIHPPYLVSKELMSLVSGLLQPVPERRTTLEKLVTDPWVTQPVNLADYTWEEVCRVNKPESGVLSAASLEMGNRSLSDVAQAQELCGGPVPGEAPNGQGCLHPGDPRLLTS
B2: human PASK S1273-1289A, pre-phosphorylated (protein)
chain: B1 chain with S1273A, S1277A, S1280A, S1287A, S1289A
B3: human PASK S1273,77,80A, pre-phosphorylated (protein)
chain: B1 chain with S1273A, S1277A, S1280A
B4: human PASK S1287,89A, pre-phosphorylated (protein)
chain: B1 chain with S1287A, S1289A
B5: human PASK enzyme, wildtype, untreated (unmodified, as purified from baculovirus-infected Sf-9 cells) (protein)
chain: B1 chain
B6: human PASK S1149A, pre-phosphorylated (protein)
chain: B1 chain with S1149A
B7: PASK ΔN, truncated variant of human PASK lacking both PAS domains (protein)
chain: SLPGSTHSTAAELTGPSLVEVLRARPWFEEPPKAVELEGLAACEGEYSQKYSTMSPLGSGAFGFVWTAVDKEKNKEVVVKFIKKEKVLEDCWIEDPKLGKVTLEIAILSRVEHANIIKVLDIFENQGFFQLVMEKHGSGLDLFAFIDRHPRLDEPLASYIFRQLVSAVGYLRLKDIIHRDIKDENIVIAEDFTIKLIDFGSAAYLERGKLFYTFCGTIEYCAPEVLMGNPYRGPELEMWSLGVTLYTLVFEENPFCELEETVEAAIHPPYLVSKELMSLVSGLLQPVPERRTTLEKLVTDPWVTQPVNLADYTWEEVCRVNKPESGVLSAASLEMGNRSLSDVAQAQELCGGPVPGEAPNGQGCLHPGDPRLLTS

Molecular target: T1, AMARA peptide, synthetic substrate …

Row | Protein | Km (mM), pre-phosphorylated [mM] | fold lower Km for substrate than the unmodified enzyme | Km (mM), untreated [mM]
1 | B1 | 0.2 | 6.5-fold lower Km for substrate than the unmodified enzyme | 
2 | B2 | 0.2 |  | 
3 | B3 | 0.3 |  | 
4 | B4 | 0.2 |  | 
5 | B5 |  |  | 1.3
6 | B6 | 0.6 |  | 
7 | B7 | 0.3 |  | 
